PMC11214633

Experiments:
[1] = molecular target: prefusion-stabilized PRD-0038 S2 subunit trimer (PRD-0038 sarbecovirus); assay: negative-stain EM
[2] = molecular target: prefusion-stabilized SARS-CoV-1 S2 subunit trimer (SARS-CoV-1); assay: negative-stain EM

Substance	stoichiometry N [1]	stoichiometry N [2]
prefusion-stabilized PRD-0038 S2 subunit trimer (domain or fragment)	3	–
prefusion-stabilized SARS-CoV-1 S2 subunit trimer (domain or fragment)	–	3
